What was measured:
Assay in all cases: BLI
Settings in all cases: none stated (T7 transcript); 3' end periodate-oxidised for biotin hydrazide; BLI (Octet RED96), biotin-tRNA on streptavidin tips: 50 mM Tris-HCl pH 8.0, 150 mM NaCl, 0.002% Tween-20, 25 C; 1:1 model
[1] = system: OSGEPL1-K203Q (Homo sapiens)
[2] = system: OSGEPL1-K203E (Homo sapiens)
[3] = system: OSGEPL1-K203R (Homo sapiens)
[4] = system: OSGEPL1 (mature, delta-MTS) (Homo sapiens)
[5] = system: OSGEPL1-K203A (Homo sapiens)
[6] = system: OSGEPL1-K299Q (Homo sapiens)

Substance	Kd [1]	Kd [2]	Kd [3]	Kd [4]	Kd [5]	Kd [6]
hmtRNAThr	14 µM	8.5 µM	3.6 µM	6.7 µM	29 µM	6.8 µM
hmtRNAThr-U34G	–	–	–	4.1 µM	–	–
hmtRNAThr-U34C	–	–	–	5.5 µM	–	–
